Measured values taken from patent US20240270846A1 (published 2024).

B1: CE115HA000 N31S one-arm antibody (antibody, human IgG1, kappa, L234A L235A, N297A, name in Kabat numbering)
heavy: QVQLVESGGGVVQPGRSLRLSCAASGFTFSSAWMHWVRQAPGKGLEWVAQIKAKSNNYATYYAESVKGRFTISRDDSKNSLYLQMNSLKTEDTAVYYCRYVHYGAYYGVDAWGQGTTVTVSSASTKGPSVFPLAPSSKSTSGGTAALGCLVKDYFPEPVTVSWNSGALTSGVHTFPAVLQSSGLYSLSSVVTVPSSSLGTQTYICNVNHKPSNTKVDKKVEPKSCDKTHTCPPCPAPEAAGGPSVFLFPPKPKDTLMISRTPEVTCVVVDVSHEDPEVKFNWYVDGVEVHNAKTKPREEQYASTYRVVSVLTVLHQDWLNGKEYKCKVSNKALPAPIEKTISKAKGQPREPQVYTLPPSRCELTKNQVSLSCAVKGFYPSDIAVEWESNGQPENNYKTTPPVLDSDGSFFLVSKLTVDKSRWQQGNVFSCSVMHEALHNHYTQKSLSLSPDYKDDDDK
chain: EPKSSDKTHTCPPCPAPELLGGPSVFLFPPKPKDTLMISRTPEVTCVVVDVSHEDPEVKFNWYVDGVEVHNAKTKPREEQYNSTYRVVSVLTVLHQDWLNGKEYKCKVSNKALPAPIEKTISKAKGQPREPQVCTLPPSRDELTKNQVSLWCLVKGFYPSDIAVEWESNGQPENNYKTTPPVLDSDGSFFLYSKLTVDKSRWQQGNVFSCSVMHEALHNRYTQKSLSLSP
light: DIVMTQSPLSLPVTPGEPASISCRSSQSLVHSNRNTYLHWYQQKPGQAPRLLIYKVSNRFSGVPDRFSGSGSGTDFTLKISRVEAEDVGVYYCGQGTQVPYTFGQGTKLEIKRTVAAPSVFIFPPSDEQLKSGTASVVCLLNNFYPREAKVQWKVDNALQSGNSQESVTEQDSKDSTYSLSSTLTLSKADYEKHKVYACEVTHQGLSSPVTKSFNRGEC
notes: one-arm antibody
B2: CE115HA000 N53G one-arm antibody (antibody, human IgG1, kappa, L234A L235A, N297A, name in Kabat numbering)
heavy: QVQLVESGGGVVQPGRSLRLSCAASGFTFSNAWMHWVRQAPGKGLEWVAQIKAKSGNYATYYAESVKGRFTISRDDSKNSLYLQMNSLKTEDTAVYYCRYVHYGAYYGVDAWGQGTTVTVSSASTKGPSVFPLAPSSKSTSGGTAALGCLVKDYFPEPVTVSWNSGALTSGVHTFPAVLQSSGLYSLSSVVTVPSSSLGTQTYICNVNHKPSNTKVDKKVEPKSCDKTHTCPPCPAPEAAGGPSVFLFPPKPKDTLMISRTPEVTCVVVDVSHEDPEVKFNWYVDGVEVHNAKTKPREEQYASTYRVVSVLTVLHQDWLNGKEYKCKVSNKALPAPIEKTISKAKGQPREPQVYTLPPSRCELTKNQVSLSCAVKGFYPSDIAVEWESNGQPENNYKTTPPVLDSDGSFFLVSKLTVDKSRWQQGNVFSCSVMHEALHNHYTQKSLSLSPDYKDDDDK
chain: EPKSSDKTHTCPPCPAPELLGGPSVFLFPPKPKDTLMISRTPEVTCVVVDVSHEDPEVKFNWYVDGVEVHNAKTKPREEQYNSTYRVVSVLTVLHQDWLNGKEYKCKVSNKALPAPIEKTISKAKGQPREPQVCTLPPSRDELTKNQVSLWCLVKGFYPSDIAVEWESNGQPENNYKTTPPVLDSDGSFFLYSKLTVDKSRWQQGNVFSCSVMHEALHNRYTQKSLSLSP
light: DIVMTQSPLSLPVTPGEPASISCRSSQSLVHSNRNTYLHWYQQKPGQAPRLLIYKVSNRFSGVPDRFSGSGSGTDFTLKISRVEAEDVGVYYCGQGTQVPYTFGQGTKLEIKRTVAAPSVFIFPPSDEQLKSGTASVVCLLNNFYPREAKVQWKVDNALQSGNSQESVTEQDSKDSTYSLSSTLTLSKADYEKHKVYACEVTHQGLSSPVTKSFNRGEC
notes: one-arm antibody
B3: CE115HA000 N31W one-arm antibody (antibody, human IgG1, kappa, L234A L235A, N297A, name in Kabat numbering)
heavy: QVQLVESGGGVVQPGRSLRLSCAASGFTFSWAWMHWVRQAPGKGLEWVAQIKAKSNNYATYYAESVKGRFTISRDDSKNSLYLQMNSLKTEDTAVYYCRYVHYGAYYGVDAWGQGTTVTVSSASTKGPSVFPLAPSSKSTSGGTAALGCLVKDYFPEPVTVSWNSGALTSGVHTFPAVLQSSGLYSLSSVVTVPSSSLGTQTYICNVNHKPSNTKVDKKVEPKSCDKTHTCPPCPAPEAAGGPSVFLFPPKPKDTLMISRTPEVTCVVVDVSHEDPEVKFNWYVDGVEVHNAKTKPREEQYASTYRVVSVLTVLHQDWLNGKEYKCKVSNKALPAPIEKTISKAKGQPREPQVYTLPPSRCELTKNQVSLSCAVKGFYPSDIAVEWESNGQPENNYKTTPPVLDSDGSFFLVSKLTVDKSRWQQGNVFSCSVMHEALHNHYTQKSLSLSPDYKDDDDK
chain: EPKSSDKTHTCPPCPAPELLGGPSVFLFPPKPKDTLMISRTPEVTCVVVDVSHEDPEVKFNWYVDGVEVHNAKTKPREEQYNSTYRVVSVLTVLHQDWLNGKEYKCKVSNKALPAPIEKTISKAKGQPREPQVCTLPPSRDELTKNQVSLWCLVKGFYPSDIAVEWESNGQPENNYKTTPPVLDSDGSFFLYSKLTVDKSRWQQGNVFSCSVMHEALHNRYTQKSLSLSP
light: DIVMTQSPLSLPVTPGEPASISCRSSQSLVHSNRNTYLHWYQQKPGQAPRLLIYKVSNRFSGVPDRFSGSGSGTDFTLKISRVEAEDVGVYYCGQGTQVPYTFGQGTKLEIKRTVAAPSVFIFPPSDEQLKSGTASVVCLLNNFYPREAKVQWKVDNALQSGNSQESVTEQDSKDSTYSLSSTLTLSKADYEKHKVYACEVTHQGLSSPVTKSFNRGEC
notes: one-arm antibody
B4: CE115HA000 N31Y one-arm antibody (antibody, human IgG1, kappa, L234A L235A, N297A, name in Kabat numbering)
heavy: QVQLVESGGGVVQPGRSLRLSCAASGFTFSYAWMHWVRQAPGKGLEWVAQIKAKSNNYATYYAESVKGRFTISRDDSKNSLYLQMNSLKTEDTAVYYCRYVHYGAYYGVDAWGQGTTVTVSSASTKGPSVFPLAPSSKSTSGGTAALGCLVKDYFPEPVTVSWNSGALTSGVHTFPAVLQSSGLYSLSSVVTVPSSSLGTQTYICNVNHKPSNTKVDKKVEPKSCDKTHTCPPCPAPEAAGGPSVFLFPPKPKDTLMISRTPEVTCVVVDVSHEDPEVKFNWYVDGVEVHNAKTKPREEQYASTYRVVSVLTVLHQDWLNGKEYKCKVSNKALPAPIEKTISKAKGQPREPQVYTLPPSRCELTKNQVSLSCAVKGFYPSDIAVEWESNGQPENNYKTTPPVLDSDGSFFLVSKLTVDKSRWQQGNVFSCSVMHEALHNHYTQKSLSLSPDYKDDDDK
chain: EPKSSDKTHTCPPCPAPELLGGPSVFLFPPKPKDTLMISRTPEVTCVVVDVSHEDPEVKFNWYVDGVEVHNAKTKPREEQYNSTYRVVSVLTVLHQDWLNGKEYKCKVSNKALPAPIEKTISKAKGQPREPQVCTLPPSRDELTKNQVSLWCLVKGFYPSDIAVEWESNGQPENNYKTTPPVLDSDGSFFLYSKLTVDKSRWQQGNVFSCSVMHEALHNRYTQKSLSLSP
light: DIVMTQSPLSLPVTPGEPASISCRSSQSLVHSNRNTYLHWYQQKPGQAPRLLIYKVSNRFSGVPDRFSGSGSGTDFTLKISRVEAEDVGVYYCGQGTQVPYTFGQGTKLEIKRTVAAPSVFIFPPSDEQLKSGTASVVCLLNNFYPREAKVQWKVDNALQSGNSQESVTEQDSKDSTYSLSSTLTLSKADYEKHKVYACEVTHQGLSSPVTKSFNRGEC
notes: one-arm antibody
B5: CE115HA000 N53D one-arm antibody (antibody, human IgG1, kappa, L234A L235A, N297A, name in Kabat numbering)
heavy: QVQLVESGGGVVQPGRSLRLSCAASGFTFSNAWMHWVRQAPGKGLEWVAQIKAKSDNYATYYAESVKGRFTISRDDSKNSLYLQMNSLKTEDTAVYYCRYVHYGAYYGVDAWGQGTTVTVSSASTKGPSVFPLAPSSKSTSGGTAALGCLVKDYFPEPVTVSWNSGALTSGVHTFPAVLQSSGLYSLSSVVTVPSSSLGTQTYICNVNHKPSNTKVDKKVEPKSCDKTHTCPPCPAPEAAGGPSVFLFPPKPKDTLMISRTPEVTCVVVDVSHEDPEVKFNWYVDGVEVHNAKTKPREEQYASTYRVVSVLTVLHQDWLNGKEYKCKVSNKALPAPIEKTISKAKGQPREPQVYTLPPSRCELTKNQVSLSCAVKGFYPSDIAVEWESNGQPENNYKTTPPVLDSDGSFFLVSKLTVDKSRWQQGNVFSCSVMHEALHNHYTQKSLSLSPDYKDDDDK
chain: EPKSSDKTHTCPPCPAPELLGGPSVFLFPPKPKDTLMISRTPEVTCVVVDVSHEDPEVKFNWYVDGVEVHNAKTKPREEQYNSTYRVVSVLTVLHQDWLNGKEYKCKVSNKALPAPIEKTISKAKGQPREPQVCTLPPSRDELTKNQVSLWCLVKGFYPSDIAVEWESNGQPENNYKTTPPVLDSDGSFFLYSKLTVDKSRWQQGNVFSCSVMHEALHNRYTQKSLSLSP
light: DIVMTQSPLSLPVTPGEPASISCRSSQSLVHSNRNTYLHWYQQKPGQAPRLLIYKVSNRFSGVPDRFSGSGSGTDFTLKISRVEAEDVGVYYCGQGTQVPYTFGQGTKLEIKRTVAAPSVFIFPPSDEQLKSGTASVVCLLNNFYPREAKVQWKVDNALQSGNSQESVTEQDSKDSTYSLSSTLTLSKADYEKHKVYACEVTHQGLSSPVTKSFNRGEC
notes: one-arm antibody
B6: CE115HA000 N53A one-arm antibody (antibody, human IgG1, kappa, L234A L235A, N297A, name in Kabat numbering)
heavy: QVQLVESGGGVVQPGRSLRLSCAASGFTFSNAWMHWVRQAPGKGLEWVAQIKAKSANYATYYAESVKGRFTISRDDSKNSLYLQMNSLKTEDTAVYYCRYVHYGAYYGVDAWGQGTTVTVSSASTKGPSVFPLAPSSKSTSGGTAALGCLVKDYFPEPVTVSWNSGALTSGVHTFPAVLQSSGLYSLSSVVTVPSSSLGTQTYICNVNHKPSNTKVDKKVEPKSCDKTHTCPPCPAPEAAGGPSVFLFPPKPKDTLMISRTPEVTCVVVDVSHEDPEVKFNWYVDGVEVHNAKTKPREEQYASTYRVVSVLTVLHQDWLNGKEYKCKVSNKALPAPIEKTISKAKGQPREPQVYTLPPSRCELTKNQVSLSCAVKGFYPSDIAVEWESNGQPENNYKTTPPVLDSDGSFFLVSKLTVDKSRWQQGNVFSCSVMHEALHNHYTQKSLSLSPDYKDDDDK
chain: EPKSSDKTHTCPPCPAPELLGGPSVFLFPPKPKDTLMISRTPEVTCVVVDVSHEDPEVKFNWYVDGVEVHNAKTKPREEQYNSTYRVVSVLTVLHQDWLNGKEYKCKVSNKALPAPIEKTISKAKGQPREPQVCTLPPSRDELTKNQVSLWCLVKGFYPSDIAVEWESNGQPENNYKTTPPVLDSDGSFFLYSKLTVDKSRWQQGNVFSCSVMHEALHNRYTQKSLSLSP
light: DIVMTQSPLSLPVTPGEPASISCRSSQSLVHSNRNTYLHWYQQKPGQAPRLLIYKVSNRFSGVPDRFSGSGSGTDFTLKISRVEAEDVGVYYCGQGTQVPYTFGQGTKLEIKRTVAAPSVFIFPPSDEQLKSGTASVVCLLNNFYPREAKVQWKVDNALQSGNSQESVTEQDSKDSTYSLSSTLTLSKADYEKHKVYACEVTHQGLSSPVTKSFNRGEC
notes: one-arm antibody

These binders were tested against T1, CD3 epsilon homodimer protein (UniProt P07766 23-126) (assay: SPR Biacore T200, antibody over immobilised CD3e homodimer;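 further: CD3 epsilon homodimer amine-coupled on a CM4 chip, run at 25 °C in HBS-EP+, Z = bound amount of each single-residue H chain variant over that of the parent antibody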).
T1 construct: also called CD3 (CD3 epsilon)
T1 sequence (P07766 23-126): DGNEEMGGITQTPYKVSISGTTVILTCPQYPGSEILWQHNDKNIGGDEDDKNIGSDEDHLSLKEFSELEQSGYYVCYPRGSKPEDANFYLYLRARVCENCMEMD
Description: An appropriate amount of CD3 epsilon homodimer protein was immobilized onto Sensor chip CM4 (GE Healthcare Japan Corp.) by the amine coupling method. Then, the antibody having an appropriate concentration was injected thereto as an analyte and allowed to interact with the CD3 epsilon homodimer protein on the sensor chip. Then, the sensor chip was regenerated by the injection of 10 mmol/L glycine-HCl (pH 1.5). The assay was conducted at 25 degrees C., and HBS-EP+(GE Healthcare Japan Corp.) was used as a running buffer. […] Each parameter was calculated using Biacore T200 Evaluation Software (GE Healthcare Japan Corp.).
Specifically, when the amount of the antibody comprising CE115HA000 bound was defined as X and the amount of the H chain one-amino acid altered form bound was defined as Y, a value of Z (ratio of amounts bound)=Y/X was used.

Going from B1 to B2, the “ratio of amounts bound (Z=Y/X vs CE115HA000)” value (“ratio of amounts bound” below) falls from 0.81 to 0.5.

Going from B3 to B4, the “ratio of amounts bound” value rises from 0.63 to 0.64.

Compared with B5, B6 is higher in “ratio of amounts bound” value: 0.39 for the first, 0.7 for the second.
